The target in data set [1] is T1, NnABI5 (ABA Insensitive 5) (Nelumbo nucifera, UniProt A0A1U8B646 1-478).
T1 sequence: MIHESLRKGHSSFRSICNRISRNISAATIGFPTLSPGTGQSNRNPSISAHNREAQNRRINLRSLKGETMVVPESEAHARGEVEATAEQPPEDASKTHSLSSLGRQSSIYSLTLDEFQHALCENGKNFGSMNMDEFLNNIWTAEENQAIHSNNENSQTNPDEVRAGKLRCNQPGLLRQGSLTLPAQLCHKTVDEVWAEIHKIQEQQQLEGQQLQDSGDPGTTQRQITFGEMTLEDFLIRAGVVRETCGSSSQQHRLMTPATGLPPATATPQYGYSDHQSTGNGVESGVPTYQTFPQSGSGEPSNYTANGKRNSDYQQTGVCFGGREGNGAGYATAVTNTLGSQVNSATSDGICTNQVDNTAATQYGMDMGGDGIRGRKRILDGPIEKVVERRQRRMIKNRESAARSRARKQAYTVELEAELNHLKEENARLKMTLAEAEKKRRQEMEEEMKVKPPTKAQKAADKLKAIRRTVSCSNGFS
The data set is described as follows: EMSA; unlabelled probe weakens the shift in a dose-dependent way; Not stated; EMSA with Beyotime chemiluminescent nucleic acid detection kit. The settings on record: protein: recombinant; tags: His (pCold TF vector); chain copies: 2; blunt. In general terms: In EMSA bound probe runs differently from free probe, usually more slowly.

Data set [2] concerns the target T1, NnABI5 (ABA Insensitive 5). The data set is described as follows: EMSA; Not stated; EMSA with Beyotime chemiluminescent nucleic acid detection kit. The settings on record: protein: recombinant; tags: His (pCold TF vector); chain copies: 2; blunt.

B1: NnSBEII promoter probe (WT) (dsDNA)
DNA 1: GTGGCAACGACTGGTCACGTGACTTACGTCACCCAT
DNA 2: ATGGGTGACGTAAGTCACGTGACCAGTCGTTGCCAC
Regarding B1, the binding result in data set [1] is on record as “binds”.

B2: NnSBEII promoter mutant probe (dsDNA)
DNA 1: GTGGCAACGACTGGTAAAAAAACTTACGTCACCCAT
DNA 2: ATGGGTGACGTAAGTTTTTTTACCAGTCGTTGCCAC
In the case of B2, in data set [2], the binding result is “no binding”.

B3: NnSS2 promoter mutant probe (dsDNA)
DNA 1: CTTCCTCGGTTTTTCAAAAAATTTCTTCTGGAGTAT
DNA 2: ATACTCCAGAAGAAATTTTTTGAAAAACCGAGGAAG
Turning to B3, in data set [2], the binding result is “no binding”.

B4: NnSS2 promoter probe (WT) (dsDNA)
DNA 1: CTTCCTCGGTTTTTCCACGTGTTTCTTCTGGAGTAT
DNA 2: ATACTCCAGAAGAAACACGTGGAAAAACCGAGGAAG
For B4, in data set [1], the binding result is given as “binds”.

The values above are taken from article PMC12610401, “The miR395b–ABI5 module regulates amylopectin branching and biosynthesis and affects lotus root quality”.
